For test [1], the target named is CA24-2人腹水. In words: ELISA OD450/630, antibody 0 ng/ml (blank well), CA24-2 human ascites, HRP-labelled same antibody.
For test [2], the target named is CA24-2人腹水. The experiment in a line: ELISA OD450/630, antibody 7.813 ng/ml captured on goat anti-mouse IgG, CA24-2 human ascites, HRP-labelled same antibody. (In general: An ELISA detects its analyte on a solid surface through an enzyme-linked reagent.)
The target of test [3] is CA24-2人腹水. In words: ELISA OD450/630, antibody 31.25 ng/ml captured on goat anti-mouse IgG, CA24-2 human ascites, HRP-labelled same antibody.
Test [4] addresses CA24-2人腹水. In words: ELISA OD450/630, antibody 125 ng/ml captured on goat anti-mouse IgG, CA24-2 human ascites, HRP-labelled same antibody.
Test [5] addresses CA24-2人腹水. The experiment in a line: ELISA OD450/630, antibody 15.625 ng/ml captured on goat anti-mouse IgG, CA24-2 human ascites, HRP-labelled same antibody.
In test [6] the target is CA24-2人腹水. The experiment in a line: ELISA OD450/630, antibody 62.5 ng/ml captured on goat anti-mouse IgG, CA24-2 human ascites, HRP-labelled same antibody.
Test [7] addresses CA24-2人腹水. The experiment in a line: ELISA OD450/630: supernatant of transiently transfected CHO cells diluted 1000-fold, captured on goat anti-mouse IgG, CA24-2 human ascites, HRP-anti-CA24-2 detection; wells without supernatant OD <0.1.

B1: 实施例1的抗CA24-2抗体(WT) (antibody, mouse IgG1, kappa, V domains shown)
VH: EVKLVESGGGLVQPGGSLRLTCATSAFTFSDYYMEWVRQPPGKALEWLGFIRKKADGYTTEYSASIKGRFTISRDDSQNILYLQMNTLRAEDSATYYCARGISTATGVAYWGQGTLVTVSA
VL: DIVMTQSPSSLALSVGQKVTMSCKSSQSIVNTSNQKNYLAWYQQKPGQSPKLLVYWASTRETGVPDRFIGSGSGTDFTLAISSVQAEDLADYYCQQHYSVPFTFGSGTKLEIKR
B1: the OD450 with CA24-2人腹水 [1] was 0.052 OD; with CA24-2人腹水 [2], 0.246 OD; in the test with CA24-2人腹水 [3] it was 0.734 OD; with CA24-2人腹水 [4] it was 1.63 OD; with CA24-2人腹水 [5] it was 0.329 OD; in the test with CA24-2人腹水 [6], 1.46 OD. In the test with CA24-2人腹水 [7], this molecule showed an OD450 greater than 1 OD.

Source of the values: patent publication CN114605551A.
